In article PMC7889885 one finds stoichiometry N data, which are given here for two molecules.

In assay [1] the target is T1, mouse KCC2 (mKCC2a, SLC12A5), twin-Strep tagged, as prepared for cryo-EM (mouse), Q91V14.
T1 chain: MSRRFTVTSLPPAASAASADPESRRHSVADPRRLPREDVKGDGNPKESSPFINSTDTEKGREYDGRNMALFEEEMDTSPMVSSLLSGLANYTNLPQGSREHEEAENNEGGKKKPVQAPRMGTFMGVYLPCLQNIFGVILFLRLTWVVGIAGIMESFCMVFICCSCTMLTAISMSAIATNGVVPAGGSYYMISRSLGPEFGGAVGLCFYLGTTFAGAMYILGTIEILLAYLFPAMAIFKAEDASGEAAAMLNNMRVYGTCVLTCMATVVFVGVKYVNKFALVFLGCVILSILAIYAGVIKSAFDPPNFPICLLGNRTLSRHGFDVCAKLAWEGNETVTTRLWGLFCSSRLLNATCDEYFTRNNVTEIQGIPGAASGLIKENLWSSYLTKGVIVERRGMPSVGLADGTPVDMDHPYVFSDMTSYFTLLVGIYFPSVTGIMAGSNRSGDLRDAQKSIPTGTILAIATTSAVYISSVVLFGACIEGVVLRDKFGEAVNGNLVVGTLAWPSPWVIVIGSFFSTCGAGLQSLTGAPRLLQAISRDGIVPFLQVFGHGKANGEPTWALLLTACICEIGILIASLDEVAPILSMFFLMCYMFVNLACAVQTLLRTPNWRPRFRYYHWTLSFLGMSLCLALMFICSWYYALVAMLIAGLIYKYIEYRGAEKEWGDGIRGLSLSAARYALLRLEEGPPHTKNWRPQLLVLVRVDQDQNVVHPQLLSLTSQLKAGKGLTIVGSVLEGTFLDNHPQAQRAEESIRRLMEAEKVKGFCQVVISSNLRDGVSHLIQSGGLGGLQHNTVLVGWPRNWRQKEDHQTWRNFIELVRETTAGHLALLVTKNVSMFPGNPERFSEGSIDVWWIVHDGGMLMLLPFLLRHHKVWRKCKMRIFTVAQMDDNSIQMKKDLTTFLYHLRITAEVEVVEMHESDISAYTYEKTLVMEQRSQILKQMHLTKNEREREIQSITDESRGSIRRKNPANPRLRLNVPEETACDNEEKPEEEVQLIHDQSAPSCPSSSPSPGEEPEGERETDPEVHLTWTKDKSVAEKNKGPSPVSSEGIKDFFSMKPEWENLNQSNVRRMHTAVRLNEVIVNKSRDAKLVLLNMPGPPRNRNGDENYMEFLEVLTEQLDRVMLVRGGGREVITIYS
Nature of the assay: cryo-EM structure; single-particle cryo-EM of the purified transporter in 20 mM HEPES pH 7.4, 150 mM NaCl, 0.1% digitonin, ~10 mg/ml; C2 symmetry imposed. The note with it: remark: other sources report otherwise.

Assay [2] addresses T2, human NKCC1 (hNKCC1a, SLC12A2), twin-Strep tagged, as prepared for cryo-EM (human), P55011.
T2 chain: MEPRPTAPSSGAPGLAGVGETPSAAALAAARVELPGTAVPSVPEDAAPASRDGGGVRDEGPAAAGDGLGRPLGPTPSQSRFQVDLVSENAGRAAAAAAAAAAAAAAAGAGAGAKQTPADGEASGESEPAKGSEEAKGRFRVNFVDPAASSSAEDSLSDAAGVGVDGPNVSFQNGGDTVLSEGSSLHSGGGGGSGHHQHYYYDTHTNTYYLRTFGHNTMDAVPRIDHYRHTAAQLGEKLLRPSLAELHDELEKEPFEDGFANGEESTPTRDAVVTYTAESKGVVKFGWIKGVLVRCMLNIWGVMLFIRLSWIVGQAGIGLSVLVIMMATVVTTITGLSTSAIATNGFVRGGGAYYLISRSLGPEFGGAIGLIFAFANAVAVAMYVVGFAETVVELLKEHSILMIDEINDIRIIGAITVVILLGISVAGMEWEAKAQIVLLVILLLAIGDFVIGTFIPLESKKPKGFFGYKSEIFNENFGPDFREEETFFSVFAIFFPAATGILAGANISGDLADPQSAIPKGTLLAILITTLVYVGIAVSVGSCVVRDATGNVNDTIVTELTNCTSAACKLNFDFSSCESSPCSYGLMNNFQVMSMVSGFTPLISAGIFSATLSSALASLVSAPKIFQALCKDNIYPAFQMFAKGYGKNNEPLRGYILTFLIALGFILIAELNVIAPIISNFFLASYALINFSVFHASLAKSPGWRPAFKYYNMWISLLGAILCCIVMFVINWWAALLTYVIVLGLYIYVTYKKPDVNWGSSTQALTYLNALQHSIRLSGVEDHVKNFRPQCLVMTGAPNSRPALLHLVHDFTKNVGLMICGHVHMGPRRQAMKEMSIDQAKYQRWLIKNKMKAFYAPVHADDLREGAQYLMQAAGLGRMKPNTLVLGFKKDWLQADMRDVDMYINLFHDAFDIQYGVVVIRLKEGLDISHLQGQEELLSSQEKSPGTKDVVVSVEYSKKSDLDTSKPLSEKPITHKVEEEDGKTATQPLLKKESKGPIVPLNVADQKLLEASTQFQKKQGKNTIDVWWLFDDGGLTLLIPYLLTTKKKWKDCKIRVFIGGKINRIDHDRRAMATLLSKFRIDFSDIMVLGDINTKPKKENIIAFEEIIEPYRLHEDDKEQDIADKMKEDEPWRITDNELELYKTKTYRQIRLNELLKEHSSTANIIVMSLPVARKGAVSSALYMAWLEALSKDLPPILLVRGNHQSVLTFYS
The assay is described as above. The note with it: remark: other sources report otherwise.

B1: mouse KCC2 (mKCC2a, SLC12A5), twin-Strep tagged, as prepared for cryo-EM, Q91V14 1-1138 (natural protein)
chain: T1 chain
modifications: here or on the partner: phosphorylation at T929 and T1029 (confirmed by mass spectrometry); phosphorylation at T929 and T1029 (confirmed by mass spectrometry)
Turning to B1, the stoichiometry N in assay [1] was found to be 2.

B2: human NKCC1 (hNKCC1a, SLC12A2), twin-Strep tagged, as prepared for cryo-EM, P55011 1-1212 (natural protein)
chain: T2 chain
On to B2, for which the stoichiometry N in assay [2] worked out at 2.
